Values quoted from earlier work, collected in paper PMC3955120 (Journal of chromatography. B, Analytical technologies in …, 2013).
Where no end group is shown, it is not given here.

Settings: humans, i.v. infusion of kisspeptin-54, RIA, monoexponential decline

kisspeptin-54 (GTSLSPPPESSGSPQQPGLSAPHSRQIPAPQGAVLVQREKDLPNYNWNSFGLRF-NH2; ends and bridges not checked; UniProt Q15726 68-121, looked up)
half-life of post steady-state plasma kisspeptin-IR: 27.6 min
